The values below come from patent CN117138036A.

As usually defined, the EC50 is the midpoint of the concentration-response curve.

One test addresses 混合人源IL-4、IL-5 (human) (UniProt P05112). The experiment in a line: cell-based or functional assay.
The target of a further test is IL-5 (human) (UniProt P05113). The experiment in a line: cell-based or functional assay.
Test [1] concerns the target IL-4Rα (UniProt P24394). As to the kind of experiment: cell-based or functional assay.
The target in test [2] is IL-4Rα (UniProt P24394). As to the kind of experiment: blocking ELISA: IL-4Rα coated, biotin-IL-4; hIgG is the control, fitted value as printed. Background: ELISA stands for enzyme-linked immunosorbent assay.

Take Dupilumab+Mepolizumab(1:1混合): in the test with 混合人源IL-4、IL-5 (human), the EC50, IL4:IL5=1:1混合诱导TF-1增殖, 板8 was determined as 1.73 nM; the EC50, IL4:IL5=1:2混合诱导TF-1增殖, 板10 came to 1.96 nM; the EC50, IL4:IL5=1:3混合诱导TF-1增殖, 板12 turned out to be 0.88 nM; the EC50, IL4:IL5=1:4混合诱导TF-1增殖, 板14 came to 0.395 nM. Moreover, in the test with 混合人源IL-4、IL-5 (human), the EC50, IL4:IL5=2:1混合诱导TF-1增殖, 板6 was found to be 1.28 nM; the EC50, IL4:IL5=3:1混合诱导TF-1增殖, 板4 was determined as 0.965 nM; the EC50, IL4:IL5=4:1混合诱导TF-1增殖, 板2 was 0.825 nM; the 试验窗口, IL4:IL5=1:1混合诱导TF-1增殖, 板8 is 1.92 倍. Besides, in the test with 混合人源IL-4、IL-5 (human), the 试验窗口, IL4:IL5=1:2混合诱导TF-1增殖, 板10 is 1.62 倍; the 试验窗口, IL4:IL5=1:3混合诱导TF-1增殖, 板12 was 1.76 倍; the 试验窗口, IL4:IL5=1:4混合诱导TF-1增殖, 板14 was 1.79 倍; the 试验窗口, IL4:IL5=2:1混合诱导TF-1增殖, 板6 is 1.76 倍. In the test with 混合人源IL-4、IL-5 (human), the 试验窗口, IL4:IL5=3:1混合诱导TF-1增殖, 板4 is 1.67 倍 and the 试验窗口, IL4:IL5=4:1混合诱导TF-1增殖, 板2 is 1.68 倍.
In the test with 混合人源IL-4、IL-5 (human), “Human IgG1,kappa Isotype Control (antibody)” registered an EC50, IL4:IL5=1:1混合诱导TF-1增殖, 板8 of 14.7 nM; an EC50, IL4:IL5=1:2混合诱导TF-1增殖, 板10 of 0.00264 nM; an EC50, IL4:IL5=1:3混合诱导TF-1增殖, 板12 of 0.00193 nM; an EC50, IL4:IL5=3:1混合诱导TF-1增殖, 板4 of 0.000915 nM. In addition, in the test with 混合人源IL-4、IL-5 (human), the EC50, IL4:IL5=4:1混合诱导TF-1增殖, 板2 turned out to be 0.105 nM; the 试验窗口, IL4:IL5=1:1混合诱导TF-1增殖, 板8 was 1.07 倍; the 试验窗口, IL4:IL5=1:2混合诱导TF-1增殖, 板10 was 0.99 倍; the 试验窗口, IL4:IL5=1:3混合诱导TF-1增殖, 板12 was 0.95 倍. Besides, in the test with 混合人源IL-4、IL-5 (human), the 试验窗口, IL4:IL5=1:4混合诱导TF-1增殖, 板14 was 1.03 倍; the 试验窗口, IL4:IL5=2:1混合诱导TF-1增殖, 板6 was 0.99 倍; the 试验窗口, IL4:IL5=3:1混合诱导TF-1增殖, 板4 was 1.02 倍; the 试验窗口, IL4:IL5=4:1混合诱导TF-1增殖, 板2 was 1.01 倍.
In the test with 混合人源IL-4、IL-5 (human), Mepolizumab (antibody) showed an EC50, IL4:IL5=1:1混合诱导TF-1增殖, 板7 of 14.9 nM; an EC50, IL4:IL5=1:2混合诱导TF-1增殖, 板9 of 0.00104 nM; an EC50, IL4:IL5=1:3混合诱导TF-1增殖, 板11 of 0.00147 nM; an EC50, IL4:IL5=1:4混合诱导TF-1增殖, 板13 of 1.1 nM. Besides, in the test with 混合人源IL-4、IL-5 (human), the EC50, IL4:IL5=2:1混合诱导TF-1增殖, 板5 came to 2.94 nM; the EC50, IL4:IL5=3:1混合诱导TF-1增殖, 板3 was found to be 0.00132 nM; the EC50, IL4:IL5=4:1混合诱导TF-1增殖, 板1 is 0.0013 nM; the 试验窗口, IL4:IL5=1:1混合诱导TF-1增殖, 板7 is 1.11 倍. Further, in the test with 混合人源IL-4、IL-5 (human), the 试验窗口, IL4:IL5=1:2混合诱导TF-1增殖, 板9 was 1.06 倍; the 试验窗口, IL4:IL5=1:3混合诱导TF-1增殖, 板11 was 1.01 倍; the 试验窗口, IL4:IL5=1:4混合诱导TF-1增殖, 板13 was 1.14 倍; the 试验窗口, IL4:IL5=2:1混合诱导TF-1增殖, 板5 is 0.99 倍. Moreover, in the test with 混合人源IL-4、IL-5 (human), the 试验窗口, IL4:IL5=3:1混合诱导TF-1增殖, 板3 is 1.05 倍 and the 试验窗口, IL4:IL5=4:1混合诱导TF-1增殖, 板1 is 1.02 倍.
As for dupilumab (antibody), in the test with 混合人源IL-4、IL-5 (human), the EC50, IL4:IL5=1:1混合诱导TF-1增殖, 板7 is 0.57 nM; the EC50, IL4:IL5=1:2混合诱导TF-1增殖, 板9 came out at 0.899 nM; the EC50, IL4:IL5=1:3混合诱导TF-1增殖, 板11 stood at 0.343 nM; the EC50, IL4:IL5=1:4混合诱导TF-1增殖, 板13 was 0.156 nM. Besides, in the test with 混合人源IL-4、IL-5 (human), the EC50, IL4:IL5=2:1混合诱导TF-1增殖, 板5 stood at 0.452 nM; the EC50, IL4:IL5=3:1混合诱导TF-1增殖, 板3 was 0.448 nM; the EC50, IL4:IL5=4:1混合诱导TF-1增殖, 板1 came to 0.813 nM; the 试验窗口, IL4:IL5=1:1混合诱导TF-1增殖, 板7 was 1.77 倍. Further, in the test with 混合人源IL-4、IL-5 (human), the 试验窗口, IL4:IL5=1:2混合诱导TF-1增殖, 板9 was 1.68 倍; the 试验窗口, IL4:IL5=1:3混合诱导TF-1增殖, 板11 is 1.53 倍; the 试验窗口, IL4:IL5=1:4混合诱导TF-1增殖, 板13 is 1.58 倍; the 试验窗口, IL4:IL5=2:1混合诱导TF-1增殖, 板5 is 1.6 倍. In addition, the 试验窗口, IL4:IL5=4:1混合诱导TF-1增殖, 板1 in the test with 混合人源IL-4、IL-5 (human) is 1.77 倍.
hIgG (antibody) gave an EC50, 中和IL-5诱导的TF-1细胞增殖 (control) in the test with IL-5 (human) of 0.108 nM. Moreover, in the test with IL-4Rα [1], the EC50, 中和IL-4诱导的TF-1细胞增殖 (control) was 0.375 nM and the EC50, 中和IL-13诱导的TF-1细胞增殖 (control) was 0.131 nM. The concentration for a half-maximal effect (EC50) with IL-4Rα [2] turned out to be 2.04 nM.
